Measurements taken from patent US20030124571A1, “Novel human septin and uses therefor” (The Government of the United States of America, priority 2000, published 2003).

How the values were obtained:
caspase 3 = assay: Caspase 3 fluorescent activity assay with aldehyde inhibitor, all cells examined; assay type: cell-based
Procedure: (§1) Cells were seeded to 50% confluence in six-well plates in media containing 10% fetal calf serum overnight. Following 24 hours after transfection, cells media was changed to contain 1% fetal calf serum with or without 10 ng/ml TGF-β for additional 24 hours. Cells were treated with caspase 3 aldehyde inhibitor (Ac-DEVD-CHO) supplied with caspase 3 fluorescent activity kit according to the manufacturers' protocols (Pharmingen, San-Diego, Calif.). Results were read using FL-600 microplate fluorescence reader (Bio-Tek).

COS cells [1] = assay: Apoptosis (nuclear fragmentation, immunofluorescence) of COS cells transfected with ARTS constructs; assay type: cell-based, monkey
Procedure: A C-terminal deletion construct lacking the last 24 amino acids of the ARTS protein was constructed and its apoptotic activity in COS cells was examined. […] Thus, the truncated construct is both more rapid in translocating to the nucleus and in inducing apoptosis in response to TGF-β.
COS cells were cultured as desribed previously (Section E, above) and cotransfected with either empty empty AU5 vector (based on pcDNA3 vectors provided by Dr. Silvio Gukind) or ARTS-AU5 with X-vector. ARTS-AU5 was prepared as desribed above. X-vector is a general term to describe any other vector which was cotransfected together with ARTS to asses its effect on ARTS activity.
24 hours after transfection, cell media was changed to contain 1% fetal calf serum with or without 10 ng/ml TGF-β and the cells were incubated for another 24 hours. The cells were then washed twice with PBS and fixed with 4% paraformaldehyde in PBS. Cells were blocked with 5% BSA in PBS for 30 minutes, then incubated with anti-AU5 fluroescein antibodies (Babco, Richmond, Calif.). The cells were also counterstained with DAPI for counting of fragmented nuclei.

caspase 3 in COS cells = assay: Caspase 3 fluorescent activity assay, COS cells; assay type: cell-based, monkey; settings: overexpression of construct, following treatment with TGF-β
Procedure: as §1

caspase 3 in A549 cells = assay: Caspase 3 fluorescent activity assay, A549 cells; assay type: cell-based, human; settings: overexpression of ARTS, following TGF-β treatment
Procedure: as §1

[2] = test system: caspase 3 in NRP-154 cells; assay: Caspase 3 fluorescent activity assay, NRP-154 cells; assay type: cell-based, rat; settings: 10 ng/ml TGF-β 24 hours
Procedure: as §1

[3] = test system: 3TP-Lux promoter construct in NRP-154 cells; assay: p3TP-Lux reporter luciferase assay with ARTS cotransfection, NRP-154 cells; assay type: cell-based, rat; settings: 10 ng/ml TGF-β 24 hours
Procedure: (§2) NRP-154 and FaO cells were seeded to 50% confluence in six-well plates in DMEM-F12 or DMEM, respectively, containing 10% fetal calf serum overnight.
(§3) Antisense- and sense-ARTS were generated by PCR using ARTS cDNA containing the 5′UTR of ARTS as a template. The PCR fragments were subcloned into the Bam H1-Eco R1 sites of pcDNA3 vector containing the Pcmv promotor (invitrogen, Carlsbad, Calif.).
(§4) NRP-154 cells and FaO cells were transfected with lug/sample p3TP-Lux reporter (a gift from Dr. Joan Massague), which contains 3 repeats of an AP-1 site from the collagenase promoter linked to a short region of the PAI-1 promoter along with equal concentrations of either pcDNA3 control vector (PGL2 vector commercially available from Promega, Madison, Wis.) or the ARTS-pcDNA3 construct, described above.
(§5) The cells were then treated with 10 ng/ml TGF-β for 24 hours.
(§6) After 24 hours, a cell lysate was prepared essentially as described in Part C, above.
(§7) Luciferase activity was determined in the cell lysate using an assay kit (BD Pharmingen, San Diego, Calif.), and a MLX Microtiter plate luminometer (Dynex Technologies, Chantilly, Va.). […]
(§8) Experiments were repeated three times with similar results. The results are expressed as the mean (±SEM) of duplicate luciferase assay, corrected for transfection efficiency.

[4] = test system: 3TP-Lux promoter construct in FaO rat hepatoma cells; assay: p3TP-Lux reporter luciferase assay with ARTS cotransfection, FaO cells; assay type: cell-based; settings: 10 ng/ml TGF-β 24 hours
Procedure: as §2, §3, §4, §5, §6, §7, §8

M-NRP1 cells = assay: Annexin-V apoptosis of GFP-sorted transfected M-NRP1 cells; assay type: cell-based, rat; settings: M-NRP1 cells transfected with wildtype ARTS, 10 ng/ml TGF-β 24 hours
Procedure: (§9) Cells were seeded to 50% confluence in six-well plates in DMEM-F12 containing 10% fetal calf serum overnight.
(§10) ARTS whole cDNA in PCMV-sport vector was isolated from a human fetal cDNA library in the pcmv-sport vector (Gibco BRL Life Technologies). This vector is different from AU5 tagged vector.
(§11) The NRP-154 and M-NRP1 cells were cotransfected with a total of 2 μDNA, 1 μg ARTS-pcmv-sport and 1 μg a GFP vector (Clontech, Palo-Alto, Calif.), a marker for transfected cells, using Lipofectamine (Gibco BRL Life Technologies, Gaithersburg, Md.) or FuGENE 6 (Boehringer-Mannheim) according to the manufacturer's protocol.
(§12) After 24 hours, cells media was changed to contain 1% fetal calf serum with or without 10 ng/ml TGF-β for an additional 24 hours.
(§13) GFP-positive cells were sorted using FACS.
(§14) The sorted population was stained with streptavidin-sulforhodamin.
(§15) The number of apoptotic cells was measured using the TACS Annexin-V-biotin (Trevigen, Gaithersburg, Md.).

COS cells [5] = assay: TUNEL assay of transfected COS cells; assay type: cell-based, monkey; settings: transfected COS cells, 10 ng/ml TGF-β for 24 hours
Procedure: COS cells were cultured as previously described (Section E, above). […] When these cells are transfected with ARTS and treatment with TGF-β they are induced to cell death.
COS cells were then transfected with control vector or wildtype ARTS, essentially as described above, and treated with 10 ng/ml TGF-β for 24 hours.
The apoptotic response of COS cells to TGF-β was assessed by a TUNEL assay ([…], now Roche, Indianapolis, Ind.) following the manufacturer's instructions.
COS cells were cultured and transfected, as described above, with equal concentrations of either pcDNA3 control vector, ARTS or M-ARTS-pcDNA3 using the Lipofectamine transfection reagent (Gibco BRL Life Technologies, Gaithersburg, Md.). The cells were treated with 1 o ng/ml TGF-β for 24 hours.
Apoptosis was examined in a TUNEL assay (Boehringer-Mannheim), according to the manufacturer's instructions.

NRP-154 cells [6] = assay: Annexin-V apoptosis of GFP-sorted transfected NRP-154 cells; assay type: cell-based, rat; settings: NRP-154 cells overexpressing ARTS
Procedure: as §9, §10, §11, §12, §13, §14, §15

COS cells [7] = assay: Immunofluorescence localization / nuclear translocation of ARTS constructs in COS cells; assay type: cell-based, monkey; settings: in response to treatment with TGF-β
Procedure: (§16) NRP-154 and COS cells were cultured and transfected as described above, and transfected with an ARTS-AU5 tagged construct, essentially as described in Part D, above. The cells were then treated with 10 ng/ml TGF-β.
(§17) An immunofluorescence assay was performed essentially as described in Part G2, above using anti-AU5 antibodies (commercially available Babco, Richmond, Calif.). Anti-AU5 FITC-conjugated secondary antibodies (Pierce) were used to detect transfected ARTS.

NRP-154 cells [8] = assay: Immunofluorescence localization / nuclear translocation of ARTS constructs in NRP-154 cells; assay type: cell-based, rat; settings: following TGF-β treatment
Procedure: as §16, §17

Molecule: Ac-DEVD-CHO
- TGF-β induced caspase activity (caspase 3): inbitited the TGF-β induced caspase activity

B1: ARTS: Apoptosis Related protein in the TGF-β Signaling pathway; 274 amino acid human septin, SEQ. ID. NO: 2, expressed by transfection (protein, listed as Homo sapiens)
chain: MIKRFLEDTTDDGELSKFVKDFSGNASCHPPEAKTWASRPQVPEPRPQAPDLYDDDLEFRPPSRPQSSDNQQYFCAPAPLSPSARPRSPWGKLDPYDSSEDDKEYVGFATLPNQVHRKSVKKGFDFTLMVAGESGLGKSTLVNSLFLTDLYRDRKLLGAEERIMQTVEITKHAVDIEEKGVRLRLTIVDTPGFGDAVNNTECWKPVAEYIDQQFEQYFRDESGLNRKNIQDNRVHCCLYFISPFGHGYGPSLRLLAPPGAVKGTGQEHQGQGCH
notes: Apoptosis Related protein in the TGF-β Signaling pathway; ID; NO: 2, expressed by transfection
- percent transfected apoptotic cells (COS cells [1]; COS cells, within 1 hour of TGF-β treatment): 18%
- induction of apoptosis by overexpression alone (COS cells [1]; COS cells, without TGF-β): does not induce apoptosis
- induction of apoptosis in transfected cells (COS cells [1]; cells treated with TGF-β): increased basal level and TGF-β-induced level of apoptosis
- activation of caspase 3 (caspase 3 in COS cells): marked increase in the activation of caspase 3
- caspase 3 activity (caspase 3 in A549 cells): marked increase in caspase 3 activity
- caspase 3 activity [2]: no further effect
- basal and TGF-β-induced luciferase activity (3TP-Lux) [3]: increased
- basal and TGF-β-induced luciferase activity (3TP-Lux) [4]: increased
- sensitivity to TGF-β induced apoptosis (M-NRP1 cells): restored, in part, the sensitivity
- TUNEL staining / competence to undergo apoptosis (COS cells [5]): strong TUNEL staining
- effect on TGF-β induced apoptosis (NRP-154 cells [6]): lack of effect

B2: ARTS-AU5: AU5 tagged construct containing the entire ARTS coding sequence in pCEF-AU5 vector (protein)
chain: B1 chain
modifications: left off: small tags and cut ends
- translocation to / localization in the nucleus (COS cells [7]): translocates to from the mitochondria to the nucleus
- translocation to the nucleus (NRP-154 cells [8]): translocates to from the mitochondria to the nucleus
